Measurements reported in patent publication US20220170028A1, “NOVEL INTERLEUKIN-2 VARIANTS AND BIFUNCTIONAL FUSION MOLECULES THEREOF” (Cugene Inc, priority 2019, published 2022).
“Also recorded” adds a separate entry of the source.

Assays:
[1] = Aggregate content by size-exclusion chromatography after Protein A purification; assay type: physicochemical; details: for Aggregation % (SEC): after MabSelectSure; for aggregates / high-molecular weight species (SEC): Example 4
Protocol: For affinity chromatography each supernatant was loaded on a HiTrap MabSelectSure column (CV=5 mL, GE Healthcare) equilibrated with 25 ml phosphate buffered saline, pH 7.2 (ThermoFisher). Unbound protein was removed by washing with 5 column volumes PBS, pH 7.2 and target protein was eluted with 25 mM sodium citrate, 25 mM sodium chloride, pH 3.2. Protein solution was neutralized by adding 3% of 1 M Tris pH 10.2. Ion exchange chromatography or mix-mode chromatography, including but not limited to CaptoMMC (GE Healthcare), ceramic hydroxyapatite, or ceramic fluoroapatite (Bio-Rad) was also utilized to polish the Protein A material as needed. Target protein was concentrated with an Amicon®Ultra-15 concentrator 10 KDa NMWC (Merck Millipore Ltd.)
The purity and molecular weight of the purified constructs were analyzed by SDS-PAGE with and in the absence of a reducing agent and staining with Coomassie (Imperial® Stain). The NuPAGE® Pre-Cast gel system (4-12% or 8-16% Bis-Tris, ThermoFisher) was used according to the manufacturer's instructions. The protein concentration of purified protein samples was determined by measuring the UV absorbance at 280 nm (Nanodrop Spectrophotometer, ThermoFisher) divided by the molar extinction coefficient calculated on the basis of the amino acid sequence. The aggregate content of the constructs was analyzed on an Agilent 1200 high-performance liquid chromatography (HPLC) system. Samples were injected onto an AdvanceBio size-exclusion column (300 Å, 4.6×150 mm, 2.7 μm, LC column, Agilent) using 150 mM sodium phosphate, pH 7.0 as the mobile phase at 25° C.
(§1) S125I substitution was thus introduced into a number of IL-2 variant Fc fusion molecules. The constructs harboring Ile-125 substitution in IL-2 were expressed using the same vector and in the same culturing conditions as their Ser-125 counterparts and purified using MabSelectSure. The expression level in mg/L and purity assessed by SEC chromatography in aggregation % of exemplary molecules are summarized in Table 6. The two molecules in the same row of Table 6 share the same other amino acid substitution(s) and differ only at residue 125 with either serine or isoleucine. As an example, the SEC chromatogram and SDS-PAGE pictures of P-0447 (SEQ ID NO: 173) and its Ile-125 counterpart P-0511 (SEQ ID NO: 213) were further illustrated in FIGS. 1D and 1E.

[2] = Transient expression level of IL-2 Fc fusion constructs in HEK-293F cells; details: for expression level (titer): transiently in HEK-293F cells, Example 4
Protocol: The constructs were produced by co-transfecting HEK293-F cells growing in suspension with the mammalian expression vectors using polyethylenimine (PEI, 25,000 MW linear, Polysciences). If there were two or more expression vectors, the vectors were transfected in a 1:1 ratio. For transfection, HEK293 cells were cultivated in serum free FreeStyle™ 293 Expression Medium (ThermoFisher). For production in 1000 ml shaking flasks (working volume 330 mL), HEK293 cells were seeded at a density of 0.8×10^6 cells/ml 24 hours before transfection. A total of 330 μg of DNA expression vectors were mixed with 16.7 ml Opti-mem Medium (ThermoFisher). After addition of 0.33 mg PEI diluted in 16.7 ml Opti-mem Medium, the mixture was vortexed for 15 sec and subsequently incubated for 10 min at room temperature. The DNA/PEI solution was then added to the cells and incubated at 37° C. in an incubator with 8% CO2. Sodium butyrate (Millipore Sigma) was added to the cells at day 4 at a final concentration of […] to help sustain protein expression. After 6 days cultivation, supernatant was collected for purification by centrifugation for 20 min at 2200 rpm. The solution was sterile filtered (0.22 μm filter, Corning). The secreted protein was purified from cell culture supernatants using Protein A affinity chromatography.
as §1

[3] = system: CD4+ Treg vs CD4+ Tconv cells; experiment: STAT5 phosphorylation, selectivity / activity profile Treg versus CD4+ Tconv cells, human PBMC; assay type: cell-based
Description: (§2) Single amino acid substitutions were introduced to IL-2 at positions corresponding to amino acids interacting with receptor subunit(s) β or γ or βγ. These substitutions were aimed to reduce IL-2 signaling capacity through the intermediate affinity IL-2Rβγ complex and confer signaling specificity from the high affinity IL-2Rαβγ. IL-2 variants containing single amino acid substitutions were examined for their ability to differentially stimulate STAT5 phosphorylation in CD4 positive Treg and Tconv cells. STAT5 is known to be involved in the downstream signaling cascade upon IL-2 binding to the transmembrane IL-2 receptors. The phosphorylation of STAT5 in defined lymphocyte subpopulations was measured using fresh human peripheral blood mononuclear cells (PBMC) and the forkhead transcription factor FOXP3 was used to identify the Treg population in FACS analysis.
(§3) Briefly, human PBMC were isolated by Ficoll-Hypaque centrifugation from the buffy coat of a healthy donor. PBMC were starved in serum-free MACS buffer at 4° C. for 1 hour. 2×10^5 PBMC were then treated with serial dilutions of test compounds for 30 min at 37° C. Cells were fixed and permeabilized with Foxp3/Transcription Factor Staining Buffer Set (EBIO) by incubating with 1× Foxp3 fixation/permeabilization working solution for 30 minutes and washing with 1× permeabilization buffer. Cells were additionally fixed with Cytofix buffer and permeabilized with Perm Buffer III (BD Biosciences) and then washed. After blocking Fc receptors by adding human TruStain FcX (1:50 dilution), cells were stained with a mixture of anti-CD25-PE, anti-FOXP3-APC, anti-pSTAT5-FITC, and anti-CD4-PerCP-Cy5.5 antibodies at concentrations recommended by the manufacturer for 45 minutes at room temperature. Cells were collected by centrifugation, washed, resuspended in FACS buffer, and analyzed by flow cytometry. The flow cytometry data was gated into CD4+/Foxp3+/CD25^high and CD4+/Foxp3−/CD25^low groups for the Treg and CD4 conventional T cell subsets, respectively. Data are expressed as a percent of pStat5 positive cells in gated population.
The S125I substitution was then introduced into wild-type IL-2 or IL-2 variants that already harbored 1 or 2 mutations targeting receptor subunit(s) β or γ or βγ. The resulting IL-2 variants containing isoleucine at position 125 were tested for their ability to stimulate STAT5 phosphorylation in Treg and Tconv cells in comparison with their respective serine counterparts at position 125. Table 7 lists the potency and selectivity of IL-2 variants in Treg cells. The two molecules in the same row of Table 7 share the same other amino acid substitution(s) and differ only at position 125 with either serine or isoleucine.

[4] = system: STAT5 phosphorylation in CD4+ Tconv cells; experiment: STAT5 phosphorylation in CD4+ Tconv cells, human PBMC assay by FACS; assay type: cell-based
Description: as §2, §3

[5] = system: STAT5 phosphorylation in CD4+ Treg cells; experiment: STAT5 phosphorylation in CD4+ Treg cells, human PBMC assay by FACS; assay type: cell-based
Description: as §2, §3

| Substance | Aggregation % (SEC) ([1]; Serine-125 constructs) | Expression ([2]; Serine-125 constructs) | Treg Selectivity ([3]; Serine-125 constructs) | STAT5 phosphorylation activity in CD4+ Tconv cells (in words) [4] | STAT5 phosphorylation activity in Treg cells (in words) [5] | aggregates / high-molecular weight species (SEC) [1] | expression level (titer) [2] | Aggregation % (SEC) ([1]; Isoleucine-125 constructs) | Expression ([2]; Isoleucine-125 constructs) | Treg Selectivity ([3]; Isoleucine-125 constructs) | potency in Treg cells relative to CD4+ Tconv cells [3] | activity profile / selectivity window Treg over CD4+ Tconv (in words) [3] |
| --- | --- | --- | --- | --- | --- | --- | --- | --- | --- | --- | --- | --- |
| P-0364: IL-2 D20E Fc fusion, SEQ ID NO: 75 | 21.1% | 0.7 mg/L | Yes | largely diminished or abolished | ability to induce STAT5 phosphorylation | – | – | – | – | – | – | – |
| P-0318: IL-2 D20I/N88I Fc fusion, SEQ ID NO: 97 | – | – | – | – | – | 65% | similarly low level | – | – | – | – | – |
| P-0492: IL-2 L19D/S125I Fc fusion, SEQ ID NO: 191 | – | – | – | – | – | – | – | 0% | 13.6 mg/L | Yes | – | – |
| P-0250: wild type IL-2 Fc fusion protein, C-terminal fusion, SEQ ID NO: 71 [reference compound] | 25.7% | 3.1 mg/L | Yes | – | – | – | around 3 mg/L | – | – | – | about 250 fold | – |
| P-0493: IL-2 D20E/S125I Fc fusion, SEQ ID NO: 192 | – | – | – | – | – | – | – | 1.7% | 7.9 mg/L | Yes | – | – |
| P-0425: IL-2 L19D Fc fusion, SEQ ID NO: 154 | 32.6% | 2.6 mg/L | Yes | significantly impaired | slightly reduced potency | – | – | – | – | – | – | wide window for selective targeting of Treg subset |
| P-0447: IL-2 L19H/Q126E Fc fusion, SEQ ID NO: 173 | 23.7% | 7.3 mg/L | Yes | nearly completely abolished; also recorded: largely abolished | robust biological activity; also recorded: significant potency | – | – | – | – | – | – | on par with Benchmark-2 |
| P-0495: IL-2 L19Y/S125I/Q126E Fc fusion, SEQ ID NO: 194 | – | – | – | – | – | – | – | 0.8% | 23.5 mg/L | Yes | – | – |
| P-0424: IL-2 L19H Fc fusion, SEQ ID NO: 153 | 21.4% | 7.7 mg/L | Yes | reduced | – | – | – | – | – | – | – | selective activation of Treg cells over CD4+ Tconv cells |
| P-0471: IL-2 L19Y/S125I Fc fusion, SEQ ID NO: 183 | – | – | – | varied significantly | retained comparable potency | 1% | 19.3 mg/L | 1.0% | 19.3 mg/L | Yes | – | – |
| P-0491: IL-2 L19H/S125I Fc fusion, SEQ ID NO: 190 | – | – | – | – | slightly increased potency | – | – | 0.6% | 36.7 mg/L | Yes | – | without altering Treg selectivity |
| P-0363: IL-2 D20T Fc fusion, SEQ ID NO: 74 | 29.4% | 1.4 mg/L | – | largely diminished or abolished | ability to induce STAT5 phosphorylation | – | – | – | – | – | – | some or significant biased selective window |
| P-0494: IL-2 D20T/S125I Fc fusion, SEQ ID NO: 193 | – | – | – | – | – | – | – | 0.5% | 11.7 mg/L | – | – | – |
| P-0372: IL-2 L19Y Fc fusion, SEQ ID NO: 81 | 21.7% | 4.0 mg/L | Yes | largely retained the biological activity | minimally impacted the pSTAT5 activation potency | 21.7% | 4.0 mg/L | – | – | – | – | modestly improved selective window |
| P-0317: IL-2 D20I/N88R Fc fusion, SEQ ID NO: 96 | – | – | – | – | – | 7.5% | similarly low level | – | – | – | – | – |
